Assay results reported in PMC10329633, “Molecular basis and design principles of switchable front-rear polarity and directional migration in Myxococcus xanthus” (Nature Communications, 2023).
Where “and” joins values, the source holds several entries; their conditions need not be identical. Equal values may be shown once.

Experiments:
[1] = target: MalE-MglC (Myxococcus xanthus); assay: mass photometry; single proteins in solution, diluted into phosphate-buffered saline; MalE-RomR and MalE-RomR^C at 25 nM and 50 nM
[2] = target: MalE-MglC (Myxococcus xanthus); assay: mass photometry; mixtures of MalE-MglC with MalE-RomR or MalE-RomR^C in solution, diluted into phosphate-buffered saline
[3] = target: MalE-RomR (Myxococcus xanthus); assay: mass photometry; single proteins in solution, diluted into phosphate-buffered saline; MalE-RomR and MalE-RomR^C at 25 nM and 50 nM
[4] = target: MalE-RomR^C (Myxococcus xanthus); assay: as above
MglA-His6 = target: T1, MglA-His6 (Myxococcus xanthus, UniProt Q1DB04 1-195); assay: pull-down; Strep-MglC as bait on Strep-Tactin beads; 40 µM GppNHp in all buffers; without or with MglA-His6 preincubated with GppNHp; proteins 10 µM; MglB detected by immunoblot with α-MglB; settings: both partners purified
T1 construct: MglA, small GTPase of Myxococcus xanthus; Preloaded with GTP, GppNHp or GDP (40 µM) according to the experiment; the nucleotide is named in the assay's format; also called MglA-GTP; source: E. coli Rosetta 2(DE3), purified (Ni-NTA, Superdex 75 gel filtration); not shown: His6, C-terminal, kept
T1 sequence: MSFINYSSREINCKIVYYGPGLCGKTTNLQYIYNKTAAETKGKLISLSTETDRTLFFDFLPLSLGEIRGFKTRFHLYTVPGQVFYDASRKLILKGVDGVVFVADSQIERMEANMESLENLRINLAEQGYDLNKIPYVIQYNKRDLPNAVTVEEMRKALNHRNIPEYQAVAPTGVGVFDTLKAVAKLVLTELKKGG

Work on MalE-MglC (natural protein) yielded a stoichiometry N [1] of 2.

With MalE-RomR (natural protein) the stoichiometry N (RomR per MglC (printed as 2:2)) [2] was 1, the stoichiometry N (RomR per MglC (printed as 3:2)) [2] was 1.5 and the stoichiometry N [3] was 2 and 3.

MalE-RomR^C (domain or fragment) was tested, and the stoichiometry N (RomR^C per MglC (printed as 2:2)) [2] was 1, the stoichiometry N (RomR^C per MglC (printed as 3:2)) [2] was 1.5 and the stoichiometry N [4] was 2 and 3.

B1: His6-MglB (natural protein, Myxococcus xanthus)
chain: MGTQLVMYEEEFTKINAVCDRLTKDANAKVVFLVDKNGQLISSAGQTQNIDTTSLASLTAGNVAAMGGLAKLIGENEFPNQFHEGAKDSLYMTIVGSRVVLVVIFDNRTSLGLVRLRIKKASDELTKIFESLVKKTDSPGAGSPFAEISDDDIDNLFSE
notes: also called MglB-His6; MglB^WT; source: E. coli Rosetta 2(DE3), purified (Ni-NTA, Superdex 75 gel filtration); not shown: His6, N-terminal, kept
B1: binds (MglA-His6).
